Measurements: PMC5215794

Assays:
Assay in all cases: cross-linking
[1] = molecular target: VcINDY Q86C S95C (dimer interface cysteine mutant in the cysteine-free background) (Vibrio cholerae) (UniProt Q9KNE0)
[2] = molecular target: VcINDY K316C (dimer interface cysteine mutant in the cysteine-free background) (Vibrio cholerae) (UniProt Q9KNE0)
[3] = molecular target: VcINDY V68C S304C (dimer interface cysteine mutant in the cysteine-free background) (Vibrio cholerae) (UniProt Q9KNE0)
[4] = molecular target: VcINDY N90C (dimer interface cysteine mutant in the cysteine-free background) (Vibrio cholerae) (UniProt Q9KNE0)

## VcINDY Q86C S95C (dimer interface cysteine mutant in the cysteine-free background) (from UniProt Q9KNE0 14-462) (natural protein)
[1]
  stoichiometry N: 2

## VcINDY K316C (dimer interface cysteine mutant in the cysteine-free background) (from UniProt Q9KNE0 14-462) (natural protein)
[2]
  stoichiometry N: 2

## VcINDY V68C S304C (dimer interface cysteine mutant in the cysteine-free background) (from UniProt Q9KNE0 14-462) (natural protein)
[3]
  stoichiometry N: 2

## VcINDY N90C (dimer interface cysteine mutant in the cysteine-free background) (from UniProt Q9KNE0 14-462) (natural protein)
[4]
  stoichiometry N: 2
